Values of other authors in article PMC9696605.

Target: Fyn SH3 (Homo sapiens) (UniProt P06241)
Sequence (P06241 79-146): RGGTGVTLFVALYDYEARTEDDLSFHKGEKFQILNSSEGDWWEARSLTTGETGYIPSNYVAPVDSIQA

MBP, sequence (P02686 whole entry): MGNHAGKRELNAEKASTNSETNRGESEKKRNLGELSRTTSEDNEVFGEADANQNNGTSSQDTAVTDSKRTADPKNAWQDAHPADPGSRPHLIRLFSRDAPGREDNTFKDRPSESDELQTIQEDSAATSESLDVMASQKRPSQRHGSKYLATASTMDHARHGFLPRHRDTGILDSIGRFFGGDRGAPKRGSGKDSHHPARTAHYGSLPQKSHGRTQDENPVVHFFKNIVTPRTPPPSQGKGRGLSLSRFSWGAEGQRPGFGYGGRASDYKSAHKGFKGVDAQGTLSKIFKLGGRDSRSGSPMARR

- Kd: 6 µM
Substance: MBP (from UniProt P02686)
